Measurements taken from patent US8785600B2, “Anti-GCC antibody molecules and related compositions and methods” (Millennium Pharmaceuticals, Inc., priority 2009, dated 2014).

B1: Abx-198: Human anti-GCC SLAM mAb, IgG1,k; VH SEQ ID NO:42, VL SEQ ID NO:44 (antibody, V domains shown)
VH: EVQLLESGGGLVQPGGSLRLSCAASGFTFSSYAMSWVRQAPGKGLDWVSDISGSGGSTYYADSVKGRFTISRDNSKNTLYLQMHSLSAEDTAIYYCAKRRWQGYFDLWGRGTLVTVSS
VL: EIVLTQSPGTLSLSPGERATLSCRARQRVDSRYLAWYQQKPGQAPRLLIYGASSRATGIPDRFSGSGSGTDFTLTISRLEPEDFAVYYCQQYGSSPLTFGGGTKVEIK
B2: 8F1: Mouse anti-GCC hybridoma mAb, IgG1,k; VH SEQ ID NO:10, VL SEQ ID NO:12 (antibody, V domains shown)
VH: QVQLQQPGAELVKPGASVQMSCKASGYIFTGYWMYWVKQRPGQGLEWIGRIHPSDSNTNYNQKFKGKATLTVDKSSSTAYMQLSSLTSEDSAVYYCTHALAYWGQGTLVTVS
VL: DVVLTQTPLTLSITIGQPASISCKSSQSLLYSNGKTYLSWLLQRPGQSPKRLIYLVSQLDSGVPDRFTGSGSGTDFTLKISRVEAEDLGVYYCVQGTHLFTFGSGTKLEIK
B3: 3G1: Mouse anti-GCC hybridoma mAb, IgG1,k; VH SEQ ID NO:2, VL SEQ ID NO:4 (antibody, V domains shown)
VH: QVQLKESGPGLVAPSQSLSITCTVSGFSLSRNAISWVRQPPGKGLEWLGVIWTGGGTNYNSALKSRLSIRKENSKSQVFLKMNSLQTEDTARYFCARSGYDGFDYWGQGTLVTVSA
VL: QIVLTQSPAIMSASPGEKVTMTCSASSSVNYMHWYQQKSGTSPKRWIYDTSKLASGVPARFSGSGSGTSYSLTITSMEAEDAATYYCQQWSGNPYTFGGGTKLEIK

System: GCC 20-mer peptides (aa 1-440)
Assay: Epitope mapping by peptide array
Format: binding, human
Conditions: 20-mer peptides with 15 aa overlap, GCC aa 1-440
Excerpt: Multiple strategies were initiated to identify epitopes. Peptide array. 20-mer peptides, with 15 aa overlap were generated, covering the extracellular domain (ECD) into the transmembrane domain of GCC (aa 1-440). Peptides were synthesized and provided as arrays, immobilized on glass slides. Arrays were hybridized with each of the anti-GCC antibodies to determine if linear peptides were sufficient for binding. […] The sequence, […] (SEQ ID NO:225) is spanned by these peptides. A region of overlap among the peptides is […] (SEQ ID NO:314). […] The sequence, […] (SEQ ID NO:226), and the sequence […] (SEQ ID NO:315) overlaps the two peptides.

| Molecule | Peptides bound in peptide array |
| --- | --- |
| B1 | peptides 55 and 56 |
| B2 | peptides 55, 56 and 57 |
| B3 | peptides 55, 56 and 57 |
